Results: the supplement of paper PMC10567573

B1: MLL5 (parent)
chain: HDDGYMICCDKCSVWQHIDCMGID
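Also: lentivirally expressed fusions sorted by FACS into six bins by GFP to DsRed ratio, PSI derived from sequencing read proportions per bin multiplied by bin number.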

Variants of: B1
Experiment: protein stability index of a GFP-peptide fusion (GPS, HEK-293T) (PSI 1-6); higher = more stable
Details: c terminus: a fixed tail appended
For HDDGYMICCPKCSVWQHIDCMGID [D10P], the protein stability index was 2.36. HDDGYMICCQKCSVWQHIDCMGID [D10Q] showed a protein stability index of 2.29. In the case of HDDGYMICCRKCSVWQHIDCMGID [D10R], the protein stability index is reported as 2.4. Work on HDDGYMICCSKCSVWQHIDCMGID [D10S] yielded a protein stability index of 2.72. Work on HDDGYMICCTKCSVWQHIDCMGID [D10T] yielded a protein stability index of 1.69. For HDDGYMICCVKCSVWQHIDCMGID [D10V], the protein stability index was 3.07. With HDDGYMICCYKCSVWQHIDCMGID [D10Y] the protein stability index was 2.88. For HDDGYMICCDACSVWQHIDCMGID [K11A], the protein stability index was 1.82. Work on HDDGYMICCDCCSVWQHIDCMGID [K11C] yielded a protein stability index of 3.26. Work on HDDGYMICCDDCSVWQHIDCMGID [K11D] yielded a protein stability index of 2.79. HDDGYMICCDECSVWQHIDCMGID [K11E] gave a protein stability index of 2.39. HDDGYMICCDFCSVWQHIDCMGID [K11F] showed a protein stability index of 1.05. HDDGYMICCDGCSVWQHIDCMGID [K11G] gave a protein stability index of 3.03. With HDDGYMICCDHCSVWQHIDCMGID [K11H] the protein stability index was 2.1. For HDDGYMICCDICSVWQHIDCMGID [K11I], the protein stability index was 2. In the case of HDDGYMICCDLCSVWQHIDCMGID [K11L], the protein stability index is reported as 2.23. HDDGYMICCDMCSVWQHIDCMGID [K11M] gave a protein stability index of 1.55. Work on HDDGYMICCDNCSVWQHIDCMGID [K11N] yielded a protein stability index of 2.31. For HDDGYMICCDPCSVWQHIDCMGID [K11P], the protein stability index was 2.4. For HDDGYMICCDQCSVWQHIDCMGID [K11Q], the protein stability index was 2.94. For HDDGYMICCDRCSVWQHIDCMGID [K11R], the protein stability index was 1.85. In the case of HDDGYMICCDSCSVWQHIDCMGID [K11S], the protein stability index is reported as 2.68. For HDDGYMICCDTCSVWQHIDCMGID [K11T], the protein stability index was 1.81. For HDDGYMICCDVCSVWQHIDCMGID [K11V], the protein stability index was 1.5. Variant HDDGYMICCDYCSVWQHIDCMGID [K11Y] has a protein stability index of 1.86. Variant HDDGYMICCDKASVWQHIDCMGID [C12A] has a protein stability index of 2.71. With HDDGYMICCDKDSVWQHIDCMGID [C12D] the protein stability index was 3.54. In the case of HDDGYMICCDKESVWQHIDCMGID [C12E], the protein stability index is reported as 3.63. In the case of HDDGYMICCDKFSVWQHIDCMGID [C12F], the protein stability index is reported as 1.76. HDDGYMICCDKGSVWQHIDCMGID [C12G] gave a protein stability index of 2.67. For HDDGYMICCDKHSVWQHIDCMGID [C12H], the protein stability index was 2.65. With HDDGYMICCDKISVWQHIDCMGID [C12I] the protein stability index was 1.92. HDDGYMICCDKKSVWQHIDCMGID [C12K] gave a protein stability index of 3.46. In the case of HDDGYMICCDKLSVWQHIDCMGID [C12L], the protein stability index is reported as 1.7. With HDDGYMICCDKMSVWQHIDCMGID [C12M] the protein stability index was 2.05. In the case of HDDGYMICCDKNSVWQHIDCMGID [C12N], the protein stability index is reported as 3.05. In the case of HDDGYMICCDKPSVWQHIDCMGID [C12P], the protein stability index is reported as 2.56. For HDDGYMICCDKQSVWQHIDCMGID [C12Q], the protein stability index was 2.46. With HDDGYMICCDKRSVWQHIDCMGID [C12R] the protein stability index was 2.28. Variant HDDGYMICCDKSSVWQHIDCMGID [C12S] has a protein stability index of 3.01. HDDGYMICCDKTSVWQHIDCMGID [C12T] gave a protein stability index of 2.74. HDDGYMICCDKVSVWQHIDCMGID [C12V] showed a protein stability index of 1.93. With HDDGYMICCDKWSVWQHIDCMGID [C12W] the protein stability index was 2.32. In the case of HDDGYMICCDKYSVWQHIDCMGID [C12Y], the protein stability index is reported as 2.91. In the case of HDDGYMICCDKCAVWQHIDCMGID [S13A], the protein stability index is reported as 1.73. With HDDGYMICCDKCCVWQHIDCMGID [S13C] the protein stability index was 3.19. Variant HDDGYMICCDKCDVWQHIDCMGID [S13D] has a protein stability index of 2.18. HDDGYMICCDKCEVWQHIDCMGID [S13E] gave a protein stability index of 2.55. With HDDGYMICCDKCFVWQHIDCMGID [S13F] the protein stability index was 1.8. HDDGYMICCDKCGVWQHIDCMGID [S13G] showed a protein stability index of 3.48. For HDDGYMICCDKCHVWQHIDCMGID [S13H], the protein stability index was 2.09. With HDDGYMICCDKCKVWQHIDCMGID [S13K] the protein stability index was 2.43. Variant HDDGYMICCDKCLVWQHIDCMGID [S13L] has a protein stability index of 2.18. For HDDGYMICCDKCMVWQHIDCMGID [S13M], the protein stability index was 2.45. HDDGYMICCDKCNVWQHIDCMGID [S13N] showed a protein stability index of 2.56. Variant HDDGYMICCDKCPVWQHIDCMGID [S13P] has a protein stability index of 2.7. HDDGYMICCDKCQVWQHIDCMGID [S13Q] showed a protein stability index of 2.59. HDDGYMICCDKCRVWQHIDCMGID [S13R] gave a protein stability index of 3.31. For HDDGYMICCDKCTVWQHIDCMGID [S13T], the protein stability index was 2.72. Variant HDDGYMICCDKCVVWQHIDCMGID [S13V] has a protein stability index of 1.85. In the case of HDDGYMICCDKCWVWQHIDCMGID [S13W], the protein stability index is reported as 2.37. Variant HDDGYMICCDKCYVWQHIDCMGID [S13Y] has a protein stability index of 1.93. HDDGYMICCDKCSAWQHIDCMGID [V14A] gave a protein stability index of 2.41. HDDGYMICCDKCSCWQHIDCMGID [V14C] gave a protein stability index of 2.57. In the case of HDDGYMICCDKCSDWQHIDCMGID [V14D], the protein stability index is reported as 3.37. Variant HDDGYMICCDKCSEWQHIDCMGID [V14E] has a protein stability index of 3.73. With HDDGYMICCDKCSFWQHIDCMGID [V14F] the protein stability index was 1.86. HDDGYMICCDKCSGWQHIDCMGID [V14G] showed a protein stability index of 2.94. With HDDGYMICCDKCSHWQHIDCMGID [V14H] the protein stability index was 3.23. HDDGYMICCDKCSIWQHIDCMGID [V14I] showed a protein stability index of 2.57. Variant HDDGYMICCDKCSKWQHIDCMGID [V14K] has a protein stability index of 3.22. HDDGYMICCDKCSLWQHIDCMGID [V14L] gave a protein stability index of 1.78. HDDGYMICCDKCSMWQHIDCMGID [V14M] showed a protein stability index of 2.06. In the case of HDDGYMICCDKCSNWQHIDCMGID [V14N], the protein stability index is reported as 3.05. HDDGYMICCDKCSPWQHIDCMGID [V14P] gave a protein stability index of 3.12. HDDGYMICCDKCSQWQHIDCMGID [V14Q] gave a protein stability index of 2.83. HDDGYMICCDKCSRWQHIDCMGID [V14R] showed a protein stability index of 2.77. Variant HDDGYMICCDKCSSWQHIDCMGID [V14S] has a protein stability index of 2.77. With HDDGYMICCDKCSTWQHIDCMGID [V14T] the protein stability index was 2.93. Variant HDDGYMICCDKCSWWQHIDCMGID [V14W] has a protein stability index of 2.11. In the case of HDDGYMICCDKCSYWQHIDCMGID [V14Y], the protein stability index is reported as 2.12. In the case of HDDGYMICCDKCSVAQHIDCMGID [W15A], the protein stability index is reported as 3.38. For HDDGYMICCDKCSVCQHIDCMGID [W15C], the protein stability index was 3.49. HDDGYMICCDKCSVDQHIDCMGID [W15D] gave a protein stability index of 4.24. Work on HDDGYMICCDKCSVEQHIDCMGID [W15E] yielded a protein stability index of 4.13. Variant HDDGYMICCDKCSVFQHIDCMGID [W15F] has a protein stability index of 3.11. In the case of HDDGYMICCDKCSVGQHIDCMGID [W15G], the protein stability index is reported as 4.18. HDDGYMICCDKCSVHQHIDCMGID [W15H] gave a protein stability index of 3.93. In the case of HDDGYMICCDKCSVIQHIDCMGID [W15I], the protein stability index is reported as 2.43. HDDGYMICCDKCSVKQHIDCMGID [W15K] gave a protein stability index of 3.61. Work on HDDGYMICCDKCSVLQHIDCMGID [W15L] yielded a protein stability index of 3.16. HDDGYMICCDKCSVMQHIDCMGID [W15M] gave a protein stability index of 3.18. For HDDGYMICCDKCSVNQHIDCMGID [W15N], the protein stability index was 3.79. With HDDGYMICCDKCSVPQHIDCMGID [W15P] the protein stability index was 3.6.
